Data reported in patent publication US20030044809A1, “Nucleic acid binding of multi-zinc finger transcription factors” (published 2003).

B1: FLAG-tagged SIP1 (other, mouse, UniProt Q9R0G7 1-1214, looked up)
chain: MKQPIMADGPRCKRRKQANPRRKNVVNYDNVVDAGSETDEEDKLHIAEDDSLANPLDQDTSPASMPNHESSPHMSQGLLPREEEEEELRESVVEHSWHSGEILQASVAGPEEMKEDYDAMGPEATIQTTINNGTVKNANCTSDFEEYFAKRKLEERDGHAVSIEEYLQRSDTAIIYPEAPEELSRLGTPEANGQEENDLPPGTPDAFAQLLTCPYCDRGYKRLTSLKEHIKYRHEKNEENFSCPLCSYTFAYRTQLERHMVTHKPGTDQHQMLTQGAGNRKFKCTECGKAFKYKHHLKEHLRIHSGEKPYECPNCKKRFSHSGSYSSHISSKKCIGLISVNGRMRNNIKTGSSPNSVSSSPTNSAITQLRNKLENGKPLSMSEQTGLLKIKTEPLDFNDYKVLMATHGFSGSSPFMNGGLGATSPLGVHPSAQSPMQHLGVGMEAPLLGFPTMNSNLSEVQKVLQIVDNTVSRQKMDCKTEDISKLKGYHMKDPCSQPEEQGVTSPNIPPVGLPVVSHNGATKSIIDYTLEKVNEAKACLQSLTTDSRRQISNIKKEKLRTLIDLVTDDKMIENHSISTPFSCQFCKESFPGPIPLHQHERYLCKMNEEIKAVLQPHENIVPNKAGVFVDNKALLLSSVLSEKGLTSPINPYKDHMSVLKAYYAMNMEPNSDELLKISIAVGLPQEFVKEWFEQRKVYQYSNSRSPSLERTSKPLAPNSNPTTKDSLLPRSPVKPMDSITSPSIAELHNSVTSCDPPLRLTKSSHFTNIKAVDKLDHSRSNTPSPLNLSSTSSKNSHSSSYTPNSFSSEELQAEPLDLSLPKQMREPKGIIATKNKTKATSINLDHNSVSSSSENSDEPLNLTFIKKEFSNSNNLDNKSNNPVFGMNPFSAKPLYTPLPPQSAFPPATFMPPVQTSIPGLRPYPGLDQMSFLPHMAYTYPTGAATFADMQQRRKYQRKQGFQGDLLDGAQDYMSGLDDMTDSDSCLSRKKIKKTESGMYACDLCDKTFQKSSSLLRHKYEHTGKRPHQCQICKKAFKHKHHLIEHSRLHSGEKPYQCDKCGKRFSHSGSYSQHMNHRYSYCKREAEEREAAEREAREKGHLEPTELLMNRAYLQSITPQGYSDSEERESMPRDGESEKEHEKEGEEGYGKLRRRDGDEEEEEEEEESENKSMDTDPETIRDEEETGDHSMDDSSEDGKMETKSDHEEDNMEDGM
notes: range 1-1214; Produced in COS1 cells from pCDNA3; tested in total cell extract; also called FLAG-tagged SIP1FS; pCDNA3-SIP1 (Flag-tagged); not shown: FLAG tag at the N-terminus
B2: Myc-tagged full size SIP1 (SIP1FS) (other, mouse, UniProt Q9R0G7 1-1214, looked up)
chain: B1 chain
notes: range 1-1214; Produced in COS1 cells from pCS3; tested in total cell extract; also called Myc-tagged SIP1; WT SIP1; not shown: (Myc)6 tag of pCS3 at the N-terminus
B3: Xbra-E (dsDNA)
DNA 1: TAAAGTGACCAGGTGTCAGTTCT
DNA 2: AGAACTGACACCTGGTCACTTTA

Key:
[1] = tested on: SIP1 full size in cells (mouse); test: cell_activity; settings: luciferase reporter; derepressed by E-box mutations
[2] = molecular target: B2; test: EMSA double supershift with anti-Myc and anti-FLAG antibodies, Xbra-WT probe
Procedure: (§1) For supershift experiments, the extracts were incubated with anti-Myc (Santa Cruz) or anti-FLAG (Kodak) antibodies. For competition, an excess of unlabeled double-stranded oligonucleotides was added together with the labeled probe. The binding reaction was loaded onto a 4% polyacrylamide gel (acrylamide/bis-acrylamide, 19:1) prepared in 0.5XTBE buffer. Following electrophoresis, gels were dried, and exposed to X-Ray film. All experiments were repeated at least three times.
To address this experimentally, we used a combination of differently tagged SIP1 in supershift experiments in EMSAs. […] The SIP1 complex generated with Myc-tagged SIP1 has a slightly slower migration than the FLAG-tagged complex (the Myc-tag is longer than the FLAG-tag). […] Using an anti-FLAG antibody, only the lower part of the complex corresponding to FLAG-tagged SIP1 is super-shifted, whereas about 50% of the radioactivity remains within the Myc-tagged SIP1 complex. […] Conversely, incubating the extract with an anti-Myc antibody super-shifted only the […] part of the complex corresponding to Myc-tagged SIP1 whereas 50% of the radioactivity is retained within the FLAG-tagged SIP1 complex. […] However, we detected no other super-shifted band corresponding to a potential double super-shift, viz. super-shifted with both anti-Myc- and anti-FLAG-antibodies.

[3] = molecular target: B1; test: immunoprecipitation with anti-Myc antibody, detection with anti-FLAG antibody
Procedure: Transfected cells were washed with PBS-O (137 mM NaCl, 2.7 mM KCl, 6.5 mM Na₂HPO₄, 1.5 mM KH₂PO₄), collected in detachment buffer (10 mM Tris pH7.5, 1 mM EDTA, 10% glycerol, with protease inhibitors (Protease inhibitor Cocktail tablets, Boehringer Mannheim)) and pelleted by low spin centrifugation. The cells were then solubilized in 10 mM Tris, pH 7.4, 125 mM NaCl, 1% Triton X-100. For direct electrophoretic analysis, gel sample buffer was added to the cell lysates and the samples were boiled. For other experiments, lysates were first subjected to immunoprecipitation with either anti-Myc or anti-FLAG antibodies. Antibodies were added to aliquots of the cell lysates, which were incubated overnight at 4° C. The antibodies and the bound protein(s) of the cell lysate were coupled as a complex to protein A-Sepharose for 2 hours at 4° C. The immunoprecipitates were washed 4 times in NET buffer (50 mM Tris pH 8.0, 150 mM NaCl, 0.1% NP40, 1 mM EDTA, 0.25% gelatin), resolved by SDS-polyacrylamide (7.5%) gel electrophoresis, and electrophoretically transferred to nitrocellulose membranes. […] Immunoreactive bands were detected with an enhanced chemiluminescence reagent (NEN). […]

[4] = molecular target: T1, GST-SIP1NZF (mouse, UniProt Q9R0G7 Q9R0G7:90-383); test: EMSA; strong; settings: tags: GST; label: 32P
T1 sequence: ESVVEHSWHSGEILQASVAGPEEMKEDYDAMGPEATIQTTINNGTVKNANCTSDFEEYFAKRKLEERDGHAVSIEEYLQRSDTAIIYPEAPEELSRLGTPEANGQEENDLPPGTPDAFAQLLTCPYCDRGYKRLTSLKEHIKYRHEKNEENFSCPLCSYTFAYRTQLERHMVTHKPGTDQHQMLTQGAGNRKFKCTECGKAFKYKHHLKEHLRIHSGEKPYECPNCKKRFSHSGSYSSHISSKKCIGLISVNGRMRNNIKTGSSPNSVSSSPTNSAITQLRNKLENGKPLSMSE
Procedure: as §1, with “The DNA binding assay (20 μl) was performed at 25° C., with 1 μg of COS1 total cell protein, […] of poly dI-dC, 10 pg of ³²P-labeled double-stranded oligonucleotide (approx. 10⁴ Cerenkov counts) in the δEF1 binding buffer described previously (30). For supershift” for “For supershift”
(§2) The integrity of both SIP1 zinc finger clusters is necessary for the binding of SIP1FS to DNA: Mutations within NZF3, NZF4, CZF2, CZF3 abolish the DNA-binding activity of either the SIP1NZF or SIP1CZF zinc finger clusters. The wild type and mutated zinc finger clusters were fused to GST and the fusion proteins were produced in E. Coli. After purification, an equal amount of each fusion proteins (0.1 ng) was incubated with 10 pg of labeled Xbra-E probe. Mutations within NZF3, NZF4, CZF2 or CZF3 affect the binding of SIP1FS to the Xbra-WT probe. […]

[5] = molecular target: T2, GST-SIP1CZF (mouse, UniProt Q9R0G7 Q9R0G7:957-1156); test: EMSA; strong; settings: tags: GST; label: 32P
T2 sequence: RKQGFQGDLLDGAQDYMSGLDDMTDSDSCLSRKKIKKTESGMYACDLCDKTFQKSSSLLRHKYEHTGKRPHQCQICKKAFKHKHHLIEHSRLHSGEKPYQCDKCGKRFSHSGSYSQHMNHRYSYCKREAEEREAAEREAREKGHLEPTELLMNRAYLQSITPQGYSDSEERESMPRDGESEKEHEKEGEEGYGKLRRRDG
Procedure: as §1, with “The DNA binding assay (20 μl) was performed at 25° C., with 1 μg of COS1 total cell protein, […] of poly dI-dC, 10 pg of ³²P-labeled double-stranded oligonucleotide (approx. 10⁴ Cerenkov counts) in the δEF1 binding buffer described previously (30). For supershift” for “For supershift”
as §2

## E-cadherin promoter reporter
[1]
  activity (% decrease of promoter activity): 80

## B1
[2]
  binding result: no binding

## B2
[3]
  binding result: no binding

## B3
[4]
  binding result: binds
[5]
  binding result: binds
